Measured values as given in patent US20160002619A1 (CORNELL UNIVERSITY, published 2016).
Where a chain is given by its changes, count along the chain named. Names may count otherwise.

Legend:
[1] = target: T1, ALEXA FLUOR 488-labeled wild type mouse KGA (kidney type glutaminase isoform 1, residues 72-674) (mouse, UniProt D3Z7P3 72-674, ALEXA FLUOR 488 succinimidyl ester covalently attached to a lysine amino group (exact residue not given)); experiment: FRET time course: quenching of 10 nM 488-KGA fluorescence by QSY 9-KGA, then 10-fold excess unlabeled WT-KGA [panel a]
T1 construct: Recombinant; His-tag cleaved with thrombin
T1 sequence: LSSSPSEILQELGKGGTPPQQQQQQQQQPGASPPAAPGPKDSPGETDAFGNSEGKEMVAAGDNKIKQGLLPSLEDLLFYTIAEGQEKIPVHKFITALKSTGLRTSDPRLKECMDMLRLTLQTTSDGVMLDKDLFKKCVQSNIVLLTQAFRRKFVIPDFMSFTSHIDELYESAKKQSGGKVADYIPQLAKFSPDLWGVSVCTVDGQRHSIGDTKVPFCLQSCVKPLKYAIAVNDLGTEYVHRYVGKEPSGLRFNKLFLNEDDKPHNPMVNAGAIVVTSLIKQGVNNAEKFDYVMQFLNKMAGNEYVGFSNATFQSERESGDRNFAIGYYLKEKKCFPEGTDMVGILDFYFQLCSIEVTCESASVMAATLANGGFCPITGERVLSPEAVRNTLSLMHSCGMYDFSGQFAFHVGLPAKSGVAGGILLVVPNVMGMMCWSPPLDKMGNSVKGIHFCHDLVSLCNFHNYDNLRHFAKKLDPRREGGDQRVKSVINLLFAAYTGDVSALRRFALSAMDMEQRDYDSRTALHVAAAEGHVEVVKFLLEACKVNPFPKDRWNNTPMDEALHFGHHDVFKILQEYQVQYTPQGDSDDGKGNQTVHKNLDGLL
Method: FIGS. 9A-B illustrate that the alternate splice variant KGA behaves like GAC in a FRET assay. […] After 5 minutes, the appropriate volume of 33.25 μM (for concentrations up to 200 nM labeled protein) or 69.5 μM (for concentrations above 200 nM labeled protein) unlabeled WT-KGA was added to make the final concentration of unlabeled KGA to be ten-times the concentration of labeled KGA.

[2] = target: the molecule itself; experiment: SEC-MALS, self-association
Excerpt: FIGS. 4A-F define the oligomeric species of GAC mutants. In particular, multi-angle light scattering profiles of WT-GAC (FIG. 4A), D391K-GAC (FIG. 4B), K316E-D391K-R459E-GAC (FIG. 4C), and K316E-GAC (FIG. 4D) were obtained following SEC and subsequent MALS analysis, where elution of each species was monitored using refractive index (left axis). Upon elution, light scattering data was collected and then used to calculate the molecular weight and polydispersity for the species eluted (right axis). Reference lines for the molecular weights of the monomer, dimer, and tetramer forms of GAC are included at 58 kD, 116 kD, and 230 kD respectively. […]
Purified GAC and GAC mutants were subjected to analytical size exclusion chromatography on a Superdex 200 10/300 GL column (GE Healthcare) equilibrated with 20 mM Tris-HCl pH 8.5, 200 mM NaCl for experiments in the absence of inorganic phosphate and 20 mM Tris-HCl pH 8.5, 200 mM NaCl, 50 mM K₂HPO₄ for experiments in the presence of inorganic phosphate at a temperature of 4° C. and flow rate of 0.4 ml/min. […] RMS radius and mass distribution (polydispersity) was analyzed using the ASTRA software using monomeric BSA (Sigma) to normalize the light scattering signal.

[3] = target: the molecule itself; experiment: preparative Superdex200 gel filtration, self-association
[4] = target: the molecule itself; experiment: analytical gel filtration (Superdex 200 10/300 GL), self-association
Method: FIGS. 3A-C illustrate that WT GAC accesses monomer, dimer, and larger oligomeric species in a concentration and phosphate dependent manner.
Purified GAC and GAC mutants were subjected to analytical size exclusion chromatography on a Superdex 200 10/300 GL column (GE Healthcare) equilibrated with 20 mM Tris-HCl pH 8.5, 200 mM NaCl for experiments in the absence of inorganic phosphate and 20 mM Tris-HCl pH 8.5, 200 mM NaCl, 50 mM K₂HPO₄ for experiments in the presence of inorganic phosphate at a temperature of 4° C. and flow rate of 0.4 ml/min. Protein concentrations were prepared to be either 5 mg/mL or 0.5 mg/mL and centrifuged at 10,000×g for 10 minutes prior to injecting 200 μL of each sample. The same protocol was followed for MALS analysis. Briefly, 50 μL samples of 0.5, 5, or 10 mg/mL GAC was injected onto a WTC-030S5 size exclusion column (Wyatt technology) coupled to a static 18-angle light scattering detector (DAWN HELEOS-II) and a refractive index detector (OptiLab T-rEX, Wyatt Technology) kept at 23° C. The flow rate was kept at 1 mL/min. RMS radius and mass distribution (polydispersity) was analyzed using the ASTRA software using monomeric BSA (Sigma) to normalize the light scattering signal.

[5] = target: T2, ALEXA FLUOR 488-labeled wild type mouse GAC (glutaminase C, residues 72-603) (mouse, UniProt D3Z7P3 72-555, ALEXA FLUOR 488 succinimidyl ester covalently attached to a lysine amino group within the glutaminase domain (exact residue not given)); experiment: FRET time course: 200 nM QSY 9-labeled GAC added to 20 nM 488-WT-GAC
T2 construct: Recombinant from pET23a with an N-terminal His-tag and thrombin site; The tag was cleaved with thrombin; The oligomeric state (monomer/dimer/tetramer) depends on concentration
T2 sequence: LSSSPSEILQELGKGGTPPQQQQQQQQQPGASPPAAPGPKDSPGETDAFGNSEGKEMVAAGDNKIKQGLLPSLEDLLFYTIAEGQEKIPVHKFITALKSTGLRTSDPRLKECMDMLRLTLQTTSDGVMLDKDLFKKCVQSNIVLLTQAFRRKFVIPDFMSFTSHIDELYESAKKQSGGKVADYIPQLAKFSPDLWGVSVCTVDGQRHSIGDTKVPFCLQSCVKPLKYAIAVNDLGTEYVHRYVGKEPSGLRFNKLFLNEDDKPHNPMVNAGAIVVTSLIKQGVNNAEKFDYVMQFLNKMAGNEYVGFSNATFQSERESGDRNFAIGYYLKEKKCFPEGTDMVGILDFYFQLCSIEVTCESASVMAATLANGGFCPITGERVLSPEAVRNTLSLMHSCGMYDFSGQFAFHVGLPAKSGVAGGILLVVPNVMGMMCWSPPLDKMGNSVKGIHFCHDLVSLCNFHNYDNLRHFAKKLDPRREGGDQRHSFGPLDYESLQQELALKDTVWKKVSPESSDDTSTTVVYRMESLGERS
Method: Upon elution, light scattering data was collected and then used to calculate the molecular weight and polydispersity for the species eluted (right axis). Reference lines for the molecular weights of the monomer, dimer, and tetramer forms of GAC are included at 58 kD, 116 kD, and 230 kD respectively. […] In FIG. 4F, WT GAC and GAC mutants were titrated and added to an assay of 20 mM glutamine in the absence of phosphate to show no concentration dependent activation was observed of purified GAC mutants.
Fluorescence experiments were performed using a Varian Carry Eclipse Fluorometer in the counting mode. Excitation and emission wavelengths were 490 and 520 nm, respectively. Experiments were all prepared as one-mL samples and stirred continuously at 20° C. in 50 mM Tris-Acetate pH 8.5, 0.1 mM ethylenediaminetetraacetic acid (EDTA). […] Both BPTES and 968 were prepared in DMSO, and appropriate dilutions were made so that less than 2% (v/v) DMSO was added to an experimental sample.

B1: QSY 9-labeled wild type mouse KGA (kidney type glutaminase isoform 1, residues 72-674) (enzyme)
chain: T1 sequence
modifications: QSY 9 succinimidyl ester covalently attached to a lysine amino group (exact residue not given)
notes: Recombinant; His-tag cleaved with thrombin; also called QSY 9-KGA
B1: binds [1].

B2: unlabeled wild type mouse GAC (glutaminase C, residues 72-603) (enzyme)
chain: T2 sequence
notes: Recombinant; His-tag cleaved with thrombin; The oligomeric state depends on concentration and phosphate; also called WT-GAC; WT GAC
For B2, the “concentration dependent activation of WT-GAC (glutaminase activity, two-step assay, no phosphate)” value was “The quenching was shown to be concentration dependent with the resultant FRET titration curve strongly correlating with the concentration dependent activation of WT-GAC”, the “glutaminase specific activity (µM Glu/µM GAC min) of 50 nM WT-GAC, two-step assay, 20 mM glutamine, phosphate varied” value was “specific activity (filled circles) rises from about 500 near 3 mM phosphate to about 5000 at 20 mM and 8000 at 45 mM; it is flat at about 8700 from 67 to 150 mM” and the “glutaminase specific activity (µM Glu/µM GAC min), two-step assay, 20 mM glutamine, no phosphate” value was “specific activity (filled circles) rises from about 100 at 50 nM GAC to about 290 at 230 nM, 410 at 510 nM and about 460-470 at 770 and 1150 nM, lying on the FRET points”. B2: binds [2].

B3: Δ72 K316E-GAC (enzyme)
glutaminase C subunit: T2 sequence with K245E
notes: Unlabeled single mutant of the mouse GAC construct
B3: binds [2].

B4: unlabeled mouse GAC K316E/D391K/R459E (constitutive monomer mutant) (enzyme)
chain: T2 sequence with K245E, D320K, R388E
notes: also called K316E-D391K-R459E-GAC; monomeric GAC (K316E-D391K-R459E)
With B4 the binding result [3] was “no binding” and the “concentration dependent activation (glutaminase activity, 20 mM glutamine, no phosphate)” value was “no concentration dependent activation was observed of purified GAC mutants”.

B5: unlabeled mouse GAC D391K (constitutive dimer mutant) (enzyme)
chain: T2 sequence with D320K
notes: also called D391K-GAC
In the case of B5, the binding result [4] is reported as “binds” and the “concentration dependent activation (glutaminase activity, 20 mM glutamine, no phosphate)” value is reported as “no concentration dependent activation was observed of purified GAC mutants”.

B6: QSY 9-labeled mouse GAC K316E/D391K/R459E (constitutive monomer mutant) (enzyme)
chain: T2 sequence with K245E, D320K, R388E
modifications: QSY 9 succinimidyl ester covalently attached to a lysine amino group (exact residue not given)
notes: also called QSY 9-K316E-D391K-R459E; QSY 9-GAC (K316E, D391K, R459E) monomer mutant
B6: no binding (tested: 200 nM) [5].
